Where a chain is given by its changes, count along the chain named.

For assay [1], the target named is T1, activated HMG1 from LPS stimulated THP-1 cells (human, UniProt P09429 1-215).
T1 sequence (looked up): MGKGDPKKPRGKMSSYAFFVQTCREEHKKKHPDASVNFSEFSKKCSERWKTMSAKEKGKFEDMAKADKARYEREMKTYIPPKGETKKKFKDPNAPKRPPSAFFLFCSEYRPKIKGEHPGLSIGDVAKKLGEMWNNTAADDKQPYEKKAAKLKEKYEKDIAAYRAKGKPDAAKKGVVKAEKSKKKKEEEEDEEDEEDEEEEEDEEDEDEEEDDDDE
Nature of the assay: cell-based or functional assay.

Assay [2] deals with T2, HMG2 coated on ELISA plates (Bos taurus (Bovine), UniProt P40673 2-209).
T2 construct: also called HMGB2; HMBG2
T2 sequence: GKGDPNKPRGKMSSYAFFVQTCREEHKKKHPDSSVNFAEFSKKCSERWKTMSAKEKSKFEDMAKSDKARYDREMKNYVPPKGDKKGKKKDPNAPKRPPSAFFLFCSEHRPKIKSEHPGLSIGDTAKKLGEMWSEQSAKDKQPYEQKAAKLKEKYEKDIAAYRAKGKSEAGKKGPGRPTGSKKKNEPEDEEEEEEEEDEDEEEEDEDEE
Nature of the assay: direct ELISA, HMGB2 coated at 5 ug/mL, antibody at 10 ug/mL, anti-human kappa/lambda-HRP, OD 490. The method, then: Binding to HMG1 vs. HMG2: Ultra high-binding ELISA plates (ThermoLab systems, #3855) were coated with either 5 ug/mL of Calf thymus HMGB1 or HMBG2 diluted in 10 mM Phosphate buffered saline (PBS), pH 7.2 and incubate overnight at 4 degrees. The plates were washed twice with Ca and Mg free PBS and 100 microliters of anti-HMGB1 antibody diluted in 10 mM PBS, pH 7.2+1% bovine serum albumin (BSA) to a final concentration of 10 ug/mL was added to each well and the plates were incubated 1 hour at room temperature. The wells were washed three times with 100 μl of PBS, pH 7.2. HRP labeled goat-anti-human IgG Kappa-chain (KPL, #14-10-10) and goat-anti-human IgG Lambda-chain (KPL, #14-10-11) were diluted in 10 mM PBS+1% BSA 1:1000 and 100 μl were added to each well and incubated for 1 hour at room temperature. The wells were then washed three times with 100 μl of PBS, pH 7.2. OPD substrate (Pierce chemical company, #34006) was prepared following the manufacturers instructions and 100 μl of prepared substrate was added to each well and the plates incubated at room temperature in the dark for 20-30 minutes. The reaction was stopped with the addition of 100 μl of 2M H₂SO₄, and the plates read on a plate reader at a wavelength of 490 nm.
On the technique in general: An ELISA detects its analyte on a solid surface through an enzyme-linked reagent.

The target of assay [3] is T2, HMG2 coated on ELISA plates. The experiment in a line: direct ELISA, HMGB2 coated at 5 ug/mL, OD 490. In outline:
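Calf thymus HMGB1 or HMGB2 coated at 5 ug/mL in 10 mM PBS pH 7.2 overnight at 4 °C; anti-HMGB1 antibody added at 10 ug/mL final in PBS + 1% BSA, 1 h at room temperature. Detection with HRP anti-human kappa plus lambda (1:1000, 1 h), OPD substrate 20-30 min in the dark, H₂SO₄ stop, absorbance 490 nm.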

Assay [4] concerns the target T3, HMG1 purified from calf (bovine) thymus (bovine, UniProt P10103 2-215).
T3 construct: also called Calf thymus HMGB1; thymus HMG1
T3 sequence (looked up): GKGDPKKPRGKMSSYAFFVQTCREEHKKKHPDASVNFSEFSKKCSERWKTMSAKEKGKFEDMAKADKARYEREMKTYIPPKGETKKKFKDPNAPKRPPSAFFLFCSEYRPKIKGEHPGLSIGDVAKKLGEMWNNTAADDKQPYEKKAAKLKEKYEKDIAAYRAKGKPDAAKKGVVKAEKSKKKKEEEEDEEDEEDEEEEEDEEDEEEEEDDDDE
The experiment in a line: blocking ELISA: thymus HMGB1 pre-incubated with the antibody, then added to coated RAGE/Fc (blocked partner: RAGE/Fc); one bar per antibody, the antibody's concentration is not given. The procedure: HMG1 binding to RAGE-Ig by ELISA: 50 μl/well of RAGE-Fc fusion protein at 5 μg/ml in PBS was added to each well of an ELISA plate and incubated overnight at 4° C. The plate was then blocked with 200 μl of 5% milk at 37° C. for 1 hr and washed 3× with PBS/Tween. 50 μl/well of diluted HMGB1 solution. For dose curves, HMGB1 concentrations started at 4 ug/ml in PBS. For antibody blocking the HMGB1 was preincubated in another plate with human anti-HMG1 antibodies or buffer, then transferred to the RAGE-coated plate. The plates were then incubated at room temperature for 2 hours and washed 3×. To detect any HMG1 bound to the immobilized RAGE-Fc a mixture of biotinylated mouse anti-HMG1 mAbs (10D4, 4H11, 3E10 and 5C12) each at 1 ug/ml, total Ab: 4 ug/ml, were added to each well and the plate was incubated for 1 hour at room temperature. The plate was then washed and Strepavidin-HPR was added to each well and incubated 15 min. The plate was then washed 3× and blotted dry. 100 μl of TMB developing agent was added and the plate read at 650 nm. Values were calculated as percent of inhibition with HMG1 alone equal to 0% inhibition. The data in FIG. 9 and summarized in Table 1 represent the average of two separate experiments.

In assay [5] the target is T4, HMGB1 in joint lysate of adjuvant induced arthritis (AIA) rats (rat, UniProt P63159 2-215).
T4 construct: also called HMGB1 from arthritis joints; joint lysate HMGB1
T4 sequence (looked up): T3 sequence (looked up) with E188D, D201E, E206D
Nature of the assay: sandwich ELISA: antibody captured on anti-human Fc, AIA joint lysate added, mouse anti-HMGB1 detection, OD 450. The procedure:
HMGB1 Detection from Biological Samples: For detection of the HMGB1 from AIA joint homogenates and peritonitis sera, sandwich ELISA was performed. Goat anti-human Fc (Pierce) 14 μg/ml in PBS was coated on Immunlon IV microtiter plate over night at 4° C. After washing and blocking with 5% milk 1 hr at room temperature, G4 or S6 in blocking buffer (10 μg/ml) were added to each well of the blocked plate. The plate was washed 1 hour later and 25 μl of AIA homogenates containing 0.8 μg/ml of HMGB1 or peritonitis sera containing 7 μg/ml of HMGB1 in 0.5 M NaCl/blocking buffer were added to the wells at two fold serial dilutions. The unbound materials were removed by washing one hr after incubation. The bound HMGB1 was detected by a mouse anti-HMGB1 antibody at 2 μg/ml followed by an anti-mouse antibody conjugated with horseradish peroxidase. Mouse peritonitis sera was obtained by heart puncture 7 days after infection with heat killed staphylococcus aureus. Joint lysate was prepared from the whole paw of AIA rats as described in Example 6 below. Human sepsis sera were purchased from a commercial source.

B1: human anti-HMG1 antibody S16 (antibody, IgG1, V domains shown)
VH: EVQLLESGGGLVQPGGSLRLSCAASGFTFSWYSMLWVRQAPGKGLEWVSYISPSGGFTNYADSVKGRFTISRDNSKNTLYLQMNSLRAEDTAVYYCARWDYNSGWYYDHWGQGTLVTVSS
VL: DIQMTQSPDTLSLSPGERATLSCRASQSVNSRNLAWYQQKPGQAPRLLIYGASTRATGIPDRFSGSVSGTEFTLTISSLQPDDFATYYCQQYNSYFTFGQGTKLEIK
notes: full length IgG1 made from a human Fab phage clone; also called ATCC PTA-6259
B1: in assay [1], the “IC50 nm IL-6 Native HMGB” value came out at 38.9 nM. The binding result in assay [2] is given as “binds”.

B2: human anti-HMG1 antibody S6 (antibody, V domains shown)
VH: EVQLLESGGGLVQPGGSLRLSCAASGFTFSWYDMSWVRQAPGKGLEWVSRISPSGGYTMYADSVKGRFTISRDNSKNTLYLQMNSLRAEDTAVYYCARLEVGATSGGTAFDIWGQGTMVTVSS
VL: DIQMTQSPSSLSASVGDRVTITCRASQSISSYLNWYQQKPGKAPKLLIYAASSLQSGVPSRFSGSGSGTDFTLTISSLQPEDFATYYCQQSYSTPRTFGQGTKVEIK
notes: full length IgG1 made from a human Fab phage clone; two paragraphs print 'S4' for the PTA-6143 deposit; also called ATCC PTA-6143
Regarding B2, the binding result in assay [3] is reported as “no binding (tested: 10 ug/mL (single concentration))”.

B3: human anti-HMG1 antibody E11 (antibody, IgG1, V domains shown)
VH: EVQLLESGGGLVQPGGSLRLSCAASGFTFSRYQMNWVRQAPGKGLEWVSSISPSGGHTHYADSVKGRFTISRDNSKNTLYLQMNSLRAEDTAVYYCAKDGRQGKISTVDHWGQGTLVTVSS
VL: DIQMTQSPGTLSLSPGERATLSCRASQSVRSNFLAWYQQKPGQAPRLLIYGASRRASGIPDRFSGSGFGADFTLSISRLEPEDFAVYYCQQYGSSPNTFGQGSRVEIK
notes: full length IgG1 made from a human Fab phage clone
B3: the “IC50 nm IL-6 Native HMGB” value in assay [1] was found to be 1.73 nM. Also, the binding result in assay [4] and in assay [2] was “binds” each time.

B4: human anti-HMG1 antibody G4 (antibody, IgG1, V domains shown)
VH: EVQLLESGGGLVQPGGSLRLSCAASGFTFSWYDMTWVRQAPGKGLEWVSSISPSGGYTKYADSVKGRFTISRDNSKNTLYLQMNSLRAEDTAVYYCTTEFYDYLDVWGKGTTVTVSS
VL: DIQMTQSPGTLSLSPGEGATLSCRASQSVSSTYLAWYQQKPGQAPRLLIYEASKRATGTPARFSGSGSGTDFTLSISSLEPEDFAVYYCQHRHNWPPQWTFGQGTKVEVK
notes: full length IgG1 made from a human Fab phage clone; also called ATCC PTA-6258
As for B4, the results for the binding result in assay [3] and in assay [5] were “no binding (tested: 10 ug/mL (single concentration))” and “binds”, respectively.

These data come from patent US20110287023A1 (AstraZeneca / MedImmune, published 2011).
